Test [1] addresses HA2 subunit of hemagglutinin (individual subunit, Western blot) (influenza A virus H1N1, strain A/PR/8/34, UniProt P03452 344-565). Kind of test: Western blot. (In western blotting, separated proteins are transferred to a membrane and probed.)
Test [2] deals with hemagglutinin (HA) of influenza A virus H1N1, strain A/PR/8/34 (influenza A virus H1N1, strain A/PR/8/34, UniProt P03452 18-565). Kind of test: cell-based or functional assay.
Test [3] deals with hemagglutinin (HA) of influenza A virus H3N2, strain A/PC/1/73 (influenza A virus H3N2, strain A/PC/1/73, UniProt Q1PUD9 17-566). Kind of test: cell-based or functional assay.
hemagglutinin (HA) of influenza A virus H3N2, strain A/PC/1/73, sequence (Q1PUD9 17-566): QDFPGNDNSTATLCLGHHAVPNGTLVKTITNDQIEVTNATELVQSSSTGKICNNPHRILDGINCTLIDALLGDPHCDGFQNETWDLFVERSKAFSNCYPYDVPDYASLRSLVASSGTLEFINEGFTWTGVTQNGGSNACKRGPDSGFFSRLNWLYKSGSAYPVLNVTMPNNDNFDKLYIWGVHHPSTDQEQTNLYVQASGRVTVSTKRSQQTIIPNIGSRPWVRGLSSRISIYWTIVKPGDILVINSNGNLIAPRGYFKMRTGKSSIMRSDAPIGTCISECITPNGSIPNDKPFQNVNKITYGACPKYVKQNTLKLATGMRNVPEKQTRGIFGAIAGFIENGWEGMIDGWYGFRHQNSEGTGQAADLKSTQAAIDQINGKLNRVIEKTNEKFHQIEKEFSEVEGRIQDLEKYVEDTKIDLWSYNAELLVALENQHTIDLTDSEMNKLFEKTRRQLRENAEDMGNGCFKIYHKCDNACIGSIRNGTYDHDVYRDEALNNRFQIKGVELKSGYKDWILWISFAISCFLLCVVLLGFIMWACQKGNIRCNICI
Test [4] addresses hemagglutinin (HA) of influenza A virus H1N1, strain A/Malaya/302/54 (influenza A virus H1N1, strain …). Kind of test: cell-based or functional assay.
In test [5] the target is hemagglutinin (HA) of influenza A virus H3N2, strain A/Victoria/3/75 (influenza A virus H3N2, strain …, UniProt P03435 17-567). The test is described as follows: cell-based or functional assay.
hemagglutinin (HA) of influenza A virus H3N2, strain A/Victoria/3/75, sequence (P03435 17-567 limits assumed): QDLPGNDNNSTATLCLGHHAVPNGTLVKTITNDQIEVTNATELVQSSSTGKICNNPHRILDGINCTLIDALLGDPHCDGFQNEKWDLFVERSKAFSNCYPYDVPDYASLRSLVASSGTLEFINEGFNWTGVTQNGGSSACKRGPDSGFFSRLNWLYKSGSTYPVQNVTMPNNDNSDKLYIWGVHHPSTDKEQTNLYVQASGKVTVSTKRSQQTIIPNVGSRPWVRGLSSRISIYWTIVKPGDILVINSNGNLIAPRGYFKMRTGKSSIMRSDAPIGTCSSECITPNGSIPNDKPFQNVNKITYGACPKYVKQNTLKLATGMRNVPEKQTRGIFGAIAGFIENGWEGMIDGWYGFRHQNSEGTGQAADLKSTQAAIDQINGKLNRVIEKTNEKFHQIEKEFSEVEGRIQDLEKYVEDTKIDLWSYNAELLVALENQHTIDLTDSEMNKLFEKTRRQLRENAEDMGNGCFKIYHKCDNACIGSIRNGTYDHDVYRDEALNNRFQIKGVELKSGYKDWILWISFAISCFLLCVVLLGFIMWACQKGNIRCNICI

hemagglutinin (HA) of influenza A virus H1N1, strain A/PR/8/34, sequence (P03452 18-565 limits assumed): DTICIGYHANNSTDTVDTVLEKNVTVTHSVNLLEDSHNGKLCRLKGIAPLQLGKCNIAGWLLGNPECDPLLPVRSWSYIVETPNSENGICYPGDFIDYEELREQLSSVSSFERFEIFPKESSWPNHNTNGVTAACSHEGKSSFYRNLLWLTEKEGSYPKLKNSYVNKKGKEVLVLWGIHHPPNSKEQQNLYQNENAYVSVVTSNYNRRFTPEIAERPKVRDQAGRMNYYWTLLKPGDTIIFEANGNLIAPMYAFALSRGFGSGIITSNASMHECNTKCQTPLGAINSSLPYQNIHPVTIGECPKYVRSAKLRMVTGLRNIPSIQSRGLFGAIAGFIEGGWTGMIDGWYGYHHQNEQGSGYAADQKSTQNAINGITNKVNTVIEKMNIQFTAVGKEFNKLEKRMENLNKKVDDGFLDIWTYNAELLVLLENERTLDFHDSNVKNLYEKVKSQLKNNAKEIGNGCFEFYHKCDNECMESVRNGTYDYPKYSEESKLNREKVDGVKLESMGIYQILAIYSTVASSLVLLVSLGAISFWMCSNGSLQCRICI
HA2 subunit of hemagglutinin (individual subunit, Western blot), sequence (P03452 344-565 limits assumed): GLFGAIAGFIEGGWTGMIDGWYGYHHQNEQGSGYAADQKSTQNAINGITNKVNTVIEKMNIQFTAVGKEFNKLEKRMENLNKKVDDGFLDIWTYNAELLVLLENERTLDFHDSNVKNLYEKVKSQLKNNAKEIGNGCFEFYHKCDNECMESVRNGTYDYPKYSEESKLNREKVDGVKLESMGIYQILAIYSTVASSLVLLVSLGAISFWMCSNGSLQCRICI

B1: Fab28 (monoclonal antibody produced by clone INF28, human Fab fragment) (Fab, V domains shown)
VH: LEESGGGVVQPGRSLRLSCAASGFPFSSYGMHWVRQAPGKGLEWVAGVSYDGSYKYYADSVKGRFTISRDSSKSTLYLQMNSLRPEDTAVYYCARPSAIFGIYIILNGLDVWGQGTTVTVSS
VL: ELTQSPSSVSASVGDRVTITCRATQGISSWLAWYQQKPGKPPKLLIFGASSLQSGVPSRFSGSGSGTDFTLTISSLQPEDFATYFCQQAHSFPLTFGGGTKVEIK
On to B1, for which the binding result in test [1] is “no binding”. In addition, the “IC50, neutralization by plaque reduction assay, H1N1 A/PR/8/34” value in test [2] was less than 2.5 µg/mL. Moreover, in test [3], the “IC50, neutralization by plaque reduction assay, H3N2 A/Port Chalmers/1/73” value is approximately 20 µg/mL. Further, the “IC50, neutralization by plaque reduction assay, H1N1 A/Malaya/302/54” value in test [4] is less than 2.5 µg/mL. Moreover, in test [5], the “IC50, neutralization by plaque reduction assay, H3N2 A/Victoria/3/75” value was approximately 20 µg/mL.

Values taken from US20160060325A1 (POMONA RICERCA S R L, published 2016).
